This passage reports Kd and Km results from paper PMC5487730, “Functional Role of Lanthanides in Enzymatic Activity and Transcriptional Regulation of Pyrroloquinoline Quinone-Dependent Alcohol Dehydrogenases in Pseudomonas putida KT2440” (mBio, 2017).

Data set [1] concerns the target T1, PedE (Pseudomonas putida, UniProt Q88JH5).
T1 sequence (Q88JH5 34-631): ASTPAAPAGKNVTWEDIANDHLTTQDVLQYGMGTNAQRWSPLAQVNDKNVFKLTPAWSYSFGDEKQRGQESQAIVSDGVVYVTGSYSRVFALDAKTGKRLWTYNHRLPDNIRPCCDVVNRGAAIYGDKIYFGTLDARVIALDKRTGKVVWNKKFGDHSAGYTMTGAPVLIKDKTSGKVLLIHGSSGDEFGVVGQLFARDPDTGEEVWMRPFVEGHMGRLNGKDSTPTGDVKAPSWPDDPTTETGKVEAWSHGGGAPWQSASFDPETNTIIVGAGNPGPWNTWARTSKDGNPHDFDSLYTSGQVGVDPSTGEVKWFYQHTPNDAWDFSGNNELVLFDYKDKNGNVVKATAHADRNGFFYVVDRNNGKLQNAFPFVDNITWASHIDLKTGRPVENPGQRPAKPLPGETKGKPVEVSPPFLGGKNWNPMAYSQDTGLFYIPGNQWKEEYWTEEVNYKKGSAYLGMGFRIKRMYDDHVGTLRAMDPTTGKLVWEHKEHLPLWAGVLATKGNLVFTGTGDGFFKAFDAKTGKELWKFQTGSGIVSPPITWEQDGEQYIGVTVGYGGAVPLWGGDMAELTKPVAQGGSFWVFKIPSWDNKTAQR
The experiment in a line: DCPIP/PMS dye-linked activity titrated with PQQ, one-site binding fit. Format: biochemical. To be noted: 10 mM ethanol, 1 mM CaCl2, 25 mM imidazole, 100 mM Tris HCl pH 8, 30°C preincubation.

Data set [2] has as its target T2, PedH (Pseudomonas putida, UniProt Q88JH0).
T2 sequence (Q88JH0 28-595): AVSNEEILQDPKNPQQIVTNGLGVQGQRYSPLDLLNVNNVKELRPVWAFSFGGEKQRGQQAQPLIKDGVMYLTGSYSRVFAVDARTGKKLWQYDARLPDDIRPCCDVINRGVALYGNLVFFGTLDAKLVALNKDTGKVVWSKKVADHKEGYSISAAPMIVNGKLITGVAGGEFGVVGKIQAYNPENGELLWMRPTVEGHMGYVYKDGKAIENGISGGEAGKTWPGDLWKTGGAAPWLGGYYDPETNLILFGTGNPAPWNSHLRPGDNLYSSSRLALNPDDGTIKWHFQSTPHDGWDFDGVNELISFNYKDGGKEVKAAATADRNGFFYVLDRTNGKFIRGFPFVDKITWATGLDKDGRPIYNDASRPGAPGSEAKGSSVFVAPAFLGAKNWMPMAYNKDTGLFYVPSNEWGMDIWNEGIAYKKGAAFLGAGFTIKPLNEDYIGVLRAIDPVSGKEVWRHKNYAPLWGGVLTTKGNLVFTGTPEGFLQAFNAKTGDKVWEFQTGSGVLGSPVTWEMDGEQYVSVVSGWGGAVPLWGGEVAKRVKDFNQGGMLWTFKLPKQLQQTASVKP
The data set is described as above. It counts as biochemical. To be noted: 10 mM ethanol, 1 µM PrCl3, 25 mM imidazole, 100 mM Tris HCl pH 8, 30°C preincubation.

Substrate in data set [3]: CCO
Description: purified protein. The following applies: 1 µM PrCl3, 1 µM PQQ, 25 mM imidazole, 500 µM PMS, 150 µM DCPIP, 100 mM Tris HCl pH 8, 30°C preincubation.

Substrate in data set [4]: CC=O
Description: DCPIP/PMS dye-linked colorimetric assay, Michaelis-Menten fit. Format: biochemical, Pseudomonas putida. The following applies: 1 µM PrCl3, 1 µM PQQ, 25 mM imidazole, 500 µM PMS, 150 µM DCPIP, 100 mM Tris HCl pH 8, 30°C preincubation.

Substrate in data set [5]: OCCc1ccccc1
The description is as above. The following applies: 1 µM PrCl3, 1 µM PQQ, 25 mM imidazole, 500 µM PMS, 150 µM DCPIP, 100 mM Tris HCl pH 8, 30°C preincubation. Format: biochemical, Pseudomonas putida.

As for `O=C(O)c1cc(C(=O)O)c2c(n1)C(=O)C(=O)c1cc(C(=O)O)[nH]c1-2` [PQQ], the Kd (commonly the constant that tells how readily two partners part at equilibrium) was determined as 3.5 µM in data set [1] and 41 nM in data set [2].

B1: PedH (Pseudomonas putida KT2440) (protein)
chain: AVSNEEILQDPKNPQQIVTNGLGVQGQRYSPLDLLNVNNVKELRPVWAFSFGGEKQRGQQAQPLIKDGVMYLTGSYSRVFAVDARTGKKLWQYDARLPDDIRPCCDVINRGVALYGNLVFFGTLDAKLVALNKDTGKVVWSKKVADHKEGYSISAAPMIVNGKLITGVAGGEFGVVGKIQAYNPENGELLWMRPTVEGHMGYVYKDGKAIENGISGGEAGKTWPGDLWKTGGAAPWLGGYYDPETNLILFGTGNPAPWNSHLRPGDNLYSSSRLALNPDDGTIKWHFQSTPHDGWDFDGVNELISFNYKDGGKEVKAAATADRNGFFYVLDRTNGKFIRGFPFVDKITWATGLDKDGRPIYNDASRPGAPGSEAKGSSVFVAPAFLGAKNWMPMAYNKDTGLFYVPSNEWGMDIWNEGIAYKKGAAFLGAGFTIKPLNEDYIGVLRAIDPVSGKEVWRHKNYAPLWGGVLTTKGNLVFTGTPEGFLQAFNAKTGDKVWEFQTGSGVLGSPVTWEMDGEQYVSVVSGWGGAVPLWGGEVAKRVKDFNQGGMLWTFKLPKQLQQTASVKP
As to B1, the Michaelis-Menten constant (Km) – broadly, the substrate concentration at which the rate is half of its maximum – in data set [3] stood at 177 µM; in data set [4], 2261 ± 457 µM; in data set [5] it was 329 ± 22 µM.
